As usually defined, the EC50 (read off the curve) is the concentration giving half of the maximal effect. For orientation: EC50 means the concentration needed to bring the measured effect to its halfway point. As a reminder, the Kd is the constant that tells how readily two partners part at equilibrium.

Substitutions are numbered along the chain they refer to. Like-named read-outs stand apart in the source and are kept apart here.

Results on eight molecules are retold here after patent US20250368742A1 (D2M BIOTHERAPEUTICS, published 2025).

The chains are these.
T1: NKG2D-His (UniProt P26718 78-216, limits assumed)
T1 sequence (looked up): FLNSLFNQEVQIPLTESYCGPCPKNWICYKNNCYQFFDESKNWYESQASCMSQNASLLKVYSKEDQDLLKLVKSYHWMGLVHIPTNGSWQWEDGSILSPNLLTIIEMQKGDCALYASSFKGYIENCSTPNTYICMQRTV

T2: human MICA002 on cells (human)
T2 chain: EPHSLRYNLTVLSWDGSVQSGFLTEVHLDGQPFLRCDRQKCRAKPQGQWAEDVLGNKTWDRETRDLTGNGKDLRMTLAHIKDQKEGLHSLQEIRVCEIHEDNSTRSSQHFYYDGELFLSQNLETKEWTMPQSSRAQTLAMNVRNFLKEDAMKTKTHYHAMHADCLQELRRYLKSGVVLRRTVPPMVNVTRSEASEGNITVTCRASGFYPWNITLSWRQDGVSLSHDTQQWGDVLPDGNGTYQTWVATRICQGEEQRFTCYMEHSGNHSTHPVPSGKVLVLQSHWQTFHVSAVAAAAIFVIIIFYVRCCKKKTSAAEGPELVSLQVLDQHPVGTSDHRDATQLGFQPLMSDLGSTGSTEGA

T3: MICA004-ECD-HISAvi (human)
T3 construct: also called MICA004 polypeptide
T3 chain: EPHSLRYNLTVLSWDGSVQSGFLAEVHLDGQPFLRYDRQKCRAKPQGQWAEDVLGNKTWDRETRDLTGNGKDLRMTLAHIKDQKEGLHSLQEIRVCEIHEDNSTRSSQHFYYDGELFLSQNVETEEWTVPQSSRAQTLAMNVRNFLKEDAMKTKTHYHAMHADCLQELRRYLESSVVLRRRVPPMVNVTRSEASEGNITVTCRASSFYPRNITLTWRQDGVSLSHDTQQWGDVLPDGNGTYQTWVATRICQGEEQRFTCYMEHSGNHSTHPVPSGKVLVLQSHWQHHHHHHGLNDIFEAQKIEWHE

B1: MICA008-ECD-HISAvi (ligand)
chain: T3 chain with V122L, S175G, R181T, T213I, Q251R
notes: Two sources under one name in the two kinetic assays; also called MICA008 polypeptide
B2: MICA002-ECD-HISAvi (ligand)
chain: T3 chain with W14G, Y36C, V122L, V129M, E173K, S175G, R181T, S206G, R210W, T215S
notes: also called MICA002 polypeptide
B3: MICB005-ECD-HISAvi (ligand)
chain: EPHSLRYNLMVLSQDGSVQSGFLAEGHLDGQPFLRYDRQKRRAKPQGQWAEDVLGAKTWDTETEDLTENGQDLRRTLTHIKDQKGGLHSLQEIRVCEIHEDSSTRGSRHFYYDGELFLSQNLETQESTVPQSSRAQTLAMNVTNFWKEDAMKTKTHYRAMQADCLQKLQRYLKSGVAIRRTVPPMVNVTCSEVSEGNITVTCRASSFYPRNITLTWRQDGVSLSHNTQQWGDVLPDGNGTYQTWVATRIRQGEEQRFTCYMEHSGNHGTHPVPSGKALVLQSQRTDHHHHHHGLNDIFEAQKIEWHE
notes: Two sources under one name in the two kinetic assays; also called MICB005 polypeptide
B4: h36B3GS (antibody, V domains shown)
VH: QVQLVQSGAEVKKPGASVKVSCKASGYAFTKYNFYWVRQAPGQGLEWIGYIDPYFGGTVYNQKFKGKATLTVDKSTSTAYMELRSLRSDDTAVYYCATTDSYSLFTYWGQGTLVTVSS
VL: DIQMTQSPSSLSASVGDRVTITCRASQDISNYLNWYQQTPGKAVKLLIYYTSRLHSGVPSRFSGSGSGTDYTLTISSLQPEDIATYFCLQGNTLPFTFGQGTKLEIK
notes: humanized #36 variant; the text writes h36B3(GS); copies: 2 + 2
B5: CM33322 (antibody, human IgG1, kappa)
heavy: not shown
light: DIVMTQTPLSSPVTLGQPASISCRSSQSLVHRDGNTYLSWFLQRPGQAPRLLIYRISNRFSGVPDRFSGSGAGTDFTLKISRVEAEDVGVYYCMQATQIPNTFGQGTKLEIKRTVAAPSVFIFPPSDEQLKSGTASVVCLLNNFYPREAKVQWKVDNALQSGNSQESVTEQDSKDSTYSLSSTLTLSKADYEKHKVYACEVTHQGLSSPVTKSFNRGEC
B6: D2M001-003 (antibody, V domains shown)
VH: QVQLVQSGAEVKKPGSSVKVSCKASGYAFHDYLIEWVRQAPGQGLEWIGGINPGSGSTNYAQKFQGRATLTADKSTSTAYMELSSLRSEDTAVYYCARLDGNYVGYWGQGTLVTVSS
VL: DIQMTQSPSSLSASVGDRVTITCRASGNIHNYLAWYQQKPGKSPKLLVYHAKTLQSGVPSRFSGSGSGTDYTLTISSLQPEDVATYYCQHFWSTPRTFGGGTKVEIK
notes: only the CDRs are tied to the name in the text; copies: 2 + 2
B7: D2M001-004 (antibody, V domains shown)
VH: B6 VH with H30V, I51V, D100E
VL: B6 VL
notes: as for B6
B8: 13A9 (antibody, human IgG1, kappa, V domains shown)
VH: QVQLQQSGAELVRPGTSVKVSCKASGYAFTNYLIEWVKQRPGQGLEWIGAINPGSGATNYNEKFKDKARLTADKSSNTAYLQFSSLTSDDSAVYFCARFLGNYFDNWGQGATLTVSS
VL: DIQMTQSPASLSASVGETVTITCRASGNIHSYLAWYQQKQGKSPQLLVYYAETLADGVPSRFSGRGSGTQYSLKINSLQPEDFGSYFCQQFWTTPYTFGGGTKVEIKR

Assay [1] has as its target T1, NKG2D-His. Description: ELISA: NKG2D-His coated, MICA/B-ECD titrated, detection 1D5 + anti-hFc-HRP. (In general: In an ELISA, binding on a coated surface is turned into a signal by an enzyme label.)
The target of assay [2] is T2, human MICA002 on cells. Description: flow cytometry, CHO-MICA002 cells. A general note: In flow cytometry, cells or beads pass a laser one at a time.
For assay [3], the target named is B2. Description: BLI (GatorPrime); antibody on anti-hIgG Fc probe, monomeric antigen in solution.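 Further: binding kinetics of anti-MICA/B antibodies measured by biolayer interferometry, with dissociation followed for about 10 min.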
Description: (§1) The binding kinetics of the antibodies were also measured using the GatorPrime BLI (Biolayer Interferometry) system (Gator Bio, USA). Specifically, the anti-MICA/B antibodies were loaded with HFC (Anti-hIgG Fc, Gator Bio, Cat #: 160003). […] The dissociation kinetics were monitored for approximately 10 minutes. The probes were regenerated between binding cycles with Regeneration Buffer (Gator Bio, Cat #: 120012). Binding kinetics were analyzed using software supplied by the manufacturer.
Assay [4] addresses B3. The description is as above.
Description: as §1
The target of assay [5] is B1. The description is as above.
Description: as §1
The target of assay [6] is T3, MICA004-ECD-HISAvi. The description is as above.
Description: as §1
The target of assay [7] is T2, human MICA002 on cells. Description: flow cytometry, CHO-MICA002 cells.
The target in assay [8] is T4, Cynomolgus monkey MICA (cynoMICA) (Cynomolgus monkey (Macaca fascicularis)).
T4 construct: also called cyno monkey MICA; cyno MIC protein
The experiment in a line: BLI (GatorPrime); antibody on anti-hIgG Fc probe, monomeric antigen in solution.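 Further: binding kinetics of anti-MICA/B antibodies measured by biolayer interferometry, with dissociation followed for about 10 min.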
Description: as §1

Assay [9] has as its target T5, MICA009Avi (human).
T5 construct: extracellular domain
The description is as above.
Description: as §1

The target in assay [10] is T2, human MICA002 on cells. The experiment in a line: flow cytometry, CHO-MICA002 cells.
Description: CHO-MICA002 cells were incubated with titrated anti-MICA/B antibodies and then APC-labeled anti-human Fc antibody. […] The antibody binding signals of APC (gMFI) to MICA/B were measured by flow cytometry.
(§2) After an incubation time of 30 minutes, the plate was centrifuged and cells were washed with PBS three times. […] After mixing for 30 minutes at room temperature, cells were washed with PBS twice. Fluorescent signal was detected and quantified by flow cytometry (Attune™ CytPix™, ThermoFisher) within the population of live cells (viability dye PI negative).
The target of assay [11] is B2. The experiment in a line: SPR (Carterra); antibody captured by anti-human Fc, monomeric ECD antigen injected.
Description: (§3) The dissociation kinetics were monitored for approximately 10 minutes. The chip surface was regenerated between binding cycles with 10 mM glycine HCl, pH 1.7. Binding kinetics were analyzed using software supplied by the manufacturer.
Assay [12] concerns the target B3. The assay is described as above.
Description: as §3
The target in assay [13] is B1. The assay is described as above.
Description: as §3
Assay [14] addresses T3, MICA004-ECD-HISAvi. The assay is described as above.
Description: as §3
Assay [15] addresses T6, human MICA008 on cells (human).
T6 construct: whole, on cells; also called CHO-MICA008; C1R-MICA008
Description: flow cytometry, CHO-MICA008 cells.
Description: (§4) IgG1 is an isotype control (IgG). The antibody binding signals of APC (gMFI) to MICA/B were measured by flow cytometry.
as §2

Assay [16] deals with T7, human MICB005 on cells (human).
T7 construct: whole, on cells; also called CHO-MICB005; C1R-MICB005
Description: flow cytometry, CHO-MICB005 cells.
Description: as §4, §2

Assay [17] addresses B2. The experiment in a line: SPR (Carterra); antibody captured by anti-human Fc, monomeric ECD antigen injected.
Description: as §3
Assay [18] deals with B3. The assay is described as above. This is another data set of the same source.
Description: as §3
Assay [19] has as its target B1. The assay is described as above.
Description: as §3
Assay [20] concerns the target T3, MICA004-ECD-HISAvi. Described as above.
Description: as §3
For assay [21], the target named is T8, human MICA004 on cells (human).
T8 construct: whole, on cells; also called CHO-MICA004; C1R-MICA004
Description: flow cytometry, CHO-MICA004 cells.
Description: as §4, §2

The target of assay [22] is T6, human MICA008 on cells. Description: flow cytometry, HeLa cells (MICA008).
Description: as §4, §2

T6 sequence (Q29983 whole entry): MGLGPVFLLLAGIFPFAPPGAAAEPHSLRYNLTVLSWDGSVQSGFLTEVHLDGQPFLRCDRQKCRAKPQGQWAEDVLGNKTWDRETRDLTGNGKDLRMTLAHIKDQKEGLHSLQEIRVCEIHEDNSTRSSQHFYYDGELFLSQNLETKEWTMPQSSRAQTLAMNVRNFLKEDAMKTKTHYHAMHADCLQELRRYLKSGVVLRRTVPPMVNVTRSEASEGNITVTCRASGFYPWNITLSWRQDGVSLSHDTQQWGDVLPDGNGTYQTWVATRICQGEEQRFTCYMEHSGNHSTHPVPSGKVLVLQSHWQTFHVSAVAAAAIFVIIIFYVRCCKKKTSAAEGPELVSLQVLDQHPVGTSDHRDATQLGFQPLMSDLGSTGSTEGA
T8 sequence (Q29983 whole entry): as above

As to B1, in [1], the “EC50 (read off the curve)” value was around 100 ng/mL.

As to B2, the “EC50 (read off the curve)” value in assay [1] was around 200 ng/mL.

B3: the “EC50 (read off the curve)” value in assay [1] was around 20 ng/mL.

With B4, in assay [2], the EC50 was determined as 0.6 µg/mL.

Take B5: the binding result in assay [3], in assay [4], in [5] and in assay [6] was “no binding” in each case.

Turning to B6, the EC50 in [7] came to 3.59 µg/mL.

B7 yielded an EC50 in assay [7] of 4.2 µg/mL.

Take B8: the Kd came to 13.9 nM in assay [8]; 0.0956 nM in assay [3]; 0.262 nM in assay [9]; 0.425 nM in assay [4]; 0.504 nM in [5]; 1.39 nM in assay [6]. The Kd is 1.67 nM in assay [11]; 4.38 nM in [12]; 23.2 nM in assay [13]; 5.02 nM in assay [14]; 0.313 nM in assay [17]; 0.486 nM in assay [18]. Besides, the Kd worked out at 1 nM in [19] and 12.8 nM in assay [20]. Also, the EC50 in [10] is 3.56 µg/mL; in assay [15], 2.08 µg/mL; in [16], 1.71 µg/mL; in [21], 7.25 µg/mL; in [22], 4.09 µg/mL.
